Test results as given in patent publication US20200087373A1 (UNIVERSITY OF COPENHAGEN, published 2020).
Ends that are not written are not given here. * marks the point of attachment. C16 diacid = O=C(O)CCCCCCCCCCCCCCC(=O)*

T1: human GIP receptor (human, UniProt P48546 22-466)
T1 sequence (looked up): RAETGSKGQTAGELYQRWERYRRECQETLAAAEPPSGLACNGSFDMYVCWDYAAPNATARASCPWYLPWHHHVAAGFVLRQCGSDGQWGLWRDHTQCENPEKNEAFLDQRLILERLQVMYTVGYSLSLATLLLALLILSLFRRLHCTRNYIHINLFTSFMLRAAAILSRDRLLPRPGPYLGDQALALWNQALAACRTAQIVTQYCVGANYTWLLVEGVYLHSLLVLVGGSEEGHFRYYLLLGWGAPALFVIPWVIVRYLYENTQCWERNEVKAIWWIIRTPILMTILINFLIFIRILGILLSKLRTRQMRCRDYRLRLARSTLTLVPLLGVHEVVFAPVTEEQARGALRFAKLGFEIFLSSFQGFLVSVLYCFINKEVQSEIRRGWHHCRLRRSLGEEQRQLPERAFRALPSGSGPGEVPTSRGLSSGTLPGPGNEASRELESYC

B1: AT302 [hGIP(3-30)NH2[S11K]-C16diacid/11] (peptide)
peptide: EGTFISDYK(C16 diacid)IAMDKIHQQDFVNWLLAQK-NH2
modifications: N-terminus assumed
SMILES: CC[C@H](C)[C@H](NC(=O)[C@H](CCCCNC(=O)CCCCCCCCCCCCCCC(=O)O)NC(=O)[C@H](Cc1ccc(O)cc1)NC(=O)[C@H](CC(=O)O)NC(=O)[C@H](CO)NC(=O)[C@@H](NC(=O)[C@H](Cc1ccccc1)NC(=O)[C@@H](NC(=O)CNC(=O)[C@@H](N)CCC(=O)O)[C@@H](C)O)[C@@H](C)CC)C(=O)N[C@@H](C)C(=O)N[C@@H](CCSC)C(=O)N[C@@H](CC(=O)O)C(=O)N[C@@H](CCCCN)C(=O)N[C@H](C(=O)N[C@@H](Cc1c[nH]cn1)C(=O)N[C@@H](CCC(N)=O)C(=O)N[C@@H](CCC(N)=O)C(=O)N[C@@H](CC(=O)O)C(=O)N[C@@H](Cc1ccccc1)C(=O)N[C@H](C(=O)N[C@@H](CC(N)=O)C(=O)N[C@@H](Cc1c[nH]c2ccccc12)C(=O)N[C@@H](CC(C)C)C(=O)N[C@@H](CC(C)C)C(=O)N[C@@H](C)C(=O)N[C@@H](CCC(N)=O)C(=O)N[C@@H](CCCCN)C(N)=O)C(C)C)[C@@H](C)CC
B2: AT301 [hGIP(3-30)NH2[Y10K]-C16diacid/10] (peptide)
peptide: EGTFISDK(C16 diacid)SIAMDKIHQQDFVNWLLAQK-NH2
modifications: N-terminus assumed
SMILES: CC[C@H](C)[C@H](NC(=O)[C@H](CO)NC(=O)[C@H](CCCCNC(=O)CCCCCCCCCCCCCCC(=O)O)NC(=O)[C@H](CC(=O)O)NC(=O)[C@H](CO)NC(=O)[C@@H](NC(=O)[C@H](Cc1ccccc1)NC(=O)[C@@H](NC(=O)CNC(=O)[C@@H](N)CCC(=O)O)[C@@H](C)O)[C@@H](C)CC)C(=O)N[C@@H](C)C(=O)N[C@@H](CCSC)C(=O)N[C@@H](CC(=O)O)C(=O)N[C@@H](CCCCN)C(=O)N[C@H](C(=O)N[C@@H](Cc1c[nH]cn1)C(=O)N[C@@H](CCC(N)=O)C(=O)N[C@@H](CCC(N)=O)C(=O)N[C@@H](CC(=O)O)C(=O)N[C@@H](Cc1ccccc1)C(=O)N[C@H](C(=O)N[C@@H](CC(N)=O)C(=O)N[C@@H](Cc1c[nH]c2ccccc12)C(=O)N[C@@H](CC(C)C)C(=O)N[C@@H](CC(C)C)C(=O)N[C@@H](C)C(=O)N[C@@H](CCC(N)=O)C(=O)N[C@@H](CCCCN)C(N)=O)C(C)C)[C@@H](C)CC
B3: AT297 [hGIP(3-30)NH2[F6K]-C16diacid/6] (peptide)
peptide: EGTKISDYSIAMDKIHQQDFVNWLLAQK
modifications: C16-diacid (1,16-hexadecanedioic acid) on Lys 6 (GIP numbering); C-terminal amide
B4: AT298 [hGIP(3-30)NH2[I7K]-C16diacid/7] (peptide)
peptide: EGTFK(C16 diacid)SDYSIAMDKIHQQDFVNWLLAQK-NH2
modifications: N-terminus assumed
SMILES: CC[C@H](C)[C@H](NC(=O)[C@H](CO)NC(=O)[C@H](Cc1ccc(O)cc1)NC(=O)[C@H](CC(=O)O)NC(=O)[C@H](CO)NC(=O)[C@H](CCCCNC(=O)CCCCCCCCCCCCCCC(=O)O)NC(=O)[C@H](Cc1ccccc1)NC(=O)[C@@H](NC(=O)CNC(=O)[C@@H](N)CCC(=O)O)[C@@H](C)O)C(=O)N[C@@H](C)C(=O)N[C@@H](CCSC)C(=O)N[C@@H](CC(=O)O)C(=O)N[C@@H](CCCCN)C(=O)N[C@H](C(=O)N[C@@H](Cc1c[nH]cn1)C(=O)N[C@@H](CCC(N)=O)C(=O)N[C@@H](CCC(N)=O)C(=O)N[C@@H](CC(=O)O)C(=O)N[C@@H](Cc1ccccc1)C(=O)N[C@H](C(=O)N[C@@H](CC(N)=O)C(=O)N[C@@H](Cc1c[nH]c2ccccc12)C(=O)N[C@@H](CC(C)C)C(=O)N[C@@H](CC(C)C)C(=O)N[C@@H](C)C(=O)N[C@@H](CCC(N)=O)C(=O)N[C@@H](CCCCN)C(N)=O)C(C)C)[C@@H](C)CC
B5: AT299 [hGIP(3-30)NH2[S8K]-C16diacid/8] (peptide)
peptide: EGTFIK(C16 diacid)DYSIAMDKIHQQDFVNWLLAQK-NH2
modifications: N-terminus assumed
SMILES: CC[C@H](C)[C@H](NC(=O)[C@H](CO)NC(=O)[C@H](Cc1ccc(O)cc1)NC(=O)[C@H](CC(=O)O)NC(=O)[C@H](CCCCNC(=O)CCCCCCCCCCCCCCC(=O)O)NC(=O)[C@@H](NC(=O)[C@H](Cc1ccccc1)NC(=O)[C@@H](NC(=O)CNC(=O)[C@@H](N)CCC(=O)O)[C@@H](C)O)[C@@H](C)CC)C(=O)N[C@@H](C)C(=O)N[C@@H](CCSC)C(=O)N[C@@H](CC(=O)O)C(=O)N[C@@H](CCCCN)C(=O)N[C@H](C(=O)N[C@@H](Cc1c[nH]cn1)C(=O)N[C@@H](CCC(N)=O)C(=O)N[C@@H](CCC(N)=O)C(=O)N[C@@H](CC(=O)O)C(=O)N[C@@H](Cc1ccccc1)C(=O)N[C@H](C(=O)N[C@@H](CC(N)=O)C(=O)N[C@@H](Cc1c[nH]c2ccccc12)C(=O)N[C@@H](CC(C)C)C(=O)N[C@@H](CC(C)C)C(=O)N[C@@H](C)C(=O)N[C@@H](CCC(N)=O)C(=O)N[C@@H](CCCCN)C(N)=O)C(C)C)[C@@H](C)CC
B6: AT295 [hGIP(3-30)NH2[G4K]-C16diacid/4] (peptide)
peptide: EK(C16 diacid)TFISDYSIAMDKIHQQDFVNWLLAQK-NH2
modifications: N-terminus assumed
SMILES: CC[C@H](C)[C@H](NC(=O)[C@H](CO)NC(=O)[C@H](Cc1ccc(O)cc1)NC(=O)[C@H](CC(=O)O)NC(=O)[C@H](CO)NC(=O)[C@@H](NC(=O)[C@H](Cc1ccccc1)NC(=O)[C@@H](NC(=O)[C@H](CCCCNC(=O)CCCCCCCCCCCCCCC(=O)O)NC(=O)[C@@H](N)CCC(=O)O)[C@@H](C)O)[C@@H](C)CC)C(=O)N[C@@H](C)C(=O)N[C@@H](CCSC)C(=O)N[C@@H](CC(=O)O)C(=O)N[C@@H](CCCCN)C(=O)N[C@H](C(=O)N[C@@H](Cc1c[nH]cn1)C(=O)N[C@@H](CCC(N)=O)C(=O)N[C@@H](CCC(N)=O)C(=O)N[C@@H](CC(=O)O)C(=O)N[C@@H](Cc1ccccc1)C(=O)N[C@H](C(=O)N[C@@H](CC(N)=O)C(=O)N[C@@H](Cc1c[nH]c2ccccc12)C(=O)N[C@@H](CC(C)C)C(=O)N[C@@H](CC(C)C)C(=O)N[C@@H](C)C(=O)N[C@@H](CCC(N)=O)C(=O)N[C@@H](CCCCN)C(N)=O)C(C)C)[C@@H](C)CC
B7: AT300 [hGIP(3-30)NH2[D9K]-C16diacid/9] (peptide)
peptide: EGTFISK(C16 diacid)YSIAMDKIHQQDFVNWLLAQK-NH2
modifications: N-terminus assumed
SMILES: CC[C@H](C)[C@H](NC(=O)[C@H](CO)NC(=O)[C@H](Cc1ccc(O)cc1)NC(=O)[C@H](CCCCNC(=O)CCCCCCCCCCCCCCC(=O)O)NC(=O)[C@H](CO)NC(=O)[C@@H](NC(=O)[C@H](Cc1ccccc1)NC(=O)[C@@H](NC(=O)CNC(=O)[C@@H](N)CCC(=O)O)[C@@H](C)O)[C@@H](C)CC)C(=O)N[C@@H](C)C(=O)N[C@@H](CCSC)C(=O)N[C@@H](CC(=O)O)C(=O)N[C@@H](CCCCN)C(=O)N[C@H](C(=O)N[C@@H](Cc1c[nH]cn1)C(=O)N[C@@H](CCC(N)=O)C(=O)N[C@@H](CCC(N)=O)C(=O)N[C@@H](CC(=O)O)C(=O)N[C@@H](Cc1ccccc1)C(=O)N[C@H](C(=O)N[C@@H](CC(N)=O)C(=O)N[C@@H](Cc1c[nH]c2ccccc12)C(=O)N[C@@H](CC(C)C)C(=O)N[C@@H](CC(C)C)C(=O)N[C@@H](C)C(=O)N[C@@H](CCC(N)=O)C(=O)N[C@@H](CCCCN)C(N)=O)C(C)C)[C@@H](C)CC
B8: AT296 [hGIP(3-30)NH2[T5K]-C16diacid/5] (peptide)
peptide: EGK(C16 diacid)FISDYSIAMDKIHQQDFVNWLLAQK-NH2
modifications: N-terminus assumed
SMILES: CC[C@H](C)[C@H](NC(=O)[C@H](CO)NC(=O)[C@H](Cc1ccc(O)cc1)NC(=O)[C@H](CC(=O)O)NC(=O)[C@H](CO)NC(=O)[C@@H](NC(=O)[C@H](Cc1ccccc1)NC(=O)[C@H](CCCCNC(=O)CCCCCCCCCCCCCCC(=O)O)NC(=O)CNC(=O)[C@@H](N)CCC(=O)O)[C@@H](C)CC)C(=O)N[C@@H](C)C(=O)N[C@@H](CCSC)C(=O)N[C@@H](CC(=O)O)C(=O)N[C@@H](CCCCN)C(=O)N[C@H](C(=O)N[C@@H](Cc1c[nH]cn1)C(=O)N[C@@H](CCC(N)=O)C(=O)N[C@@H](CCC(N)=O)C(=O)N[C@@H](CC(=O)O)C(=O)N[C@@H](Cc1ccccc1)C(=O)N[C@H](C(=O)N[C@@H](CC(N)=O)C(=O)N[C@@H](Cc1c[nH]c2ccccc12)C(=O)N[C@@H](CC(C)C)C(=O)N[C@@H](CC(C)C)C(=O)N[C@@H](C)C(=O)N[C@@H](CCC(N)=O)C(=O)N[C@@H](CCCCN)C(N)=O)C(C)C)[C@@H](C)CC

Molecular target: T1, human GIP receptor
Assay: cell-based or functional assay

First: B1
Second: B2
The “cAMP antagonism, log (IC50)” value of the first is lower: -7.2 log M for the first, -6.8 log M for the second.

First: B3
Second: B4
The “cAMP antagonism, log (IC50)” value of the first is higher: -6.2 log M for the first, -7.5 log M for the second.

First: B5
Second: B6
The “cAMP antagonism, log (IC50)” value of the first is higher: -6.7 log M for the first, -8.1 log M for the second.

First: B7
Second: B8
The “cAMP antagonism, log (IC50)” value of the first is higher: -7.7 log M for the first, -7.8 log M for the second.

First: B1
Second: B2
The “cAMP antagonism, nM (IC50)” value of the first is 2.4-fold lower: 69 nM for the first, 163 nM for the second.

Compared with B3, B4 is 18-fold lower in “cAMP antagonism, nM (IC50)” value: 603 nM for the first, 33 nM for the second.

Going from B5 to B6, the “cAMP antagonism, nM (IC50)” value falls from 199 nM to 9.5 nM (21-fold).

Going from B7 to B8, the “cAMP antagonism, nM (IC50)” value falls from 22 nM to 14 nM (1.6-fold).

Going from B2 to B3, the “cAMP agonism, EC50 (log)” value rises from -7.9 log M to -7 log M.

Going from B5 to B6, the “cAMP agonism, EC50 (log)” value falls from -7.8 log M to -8.6 log M.

With B8 the “cAMP agonism, EC50 (log)” value was -8.6 log M.

Going from B2 to B3, the “cAMP agonism, Emax” value rises from 8.5% to 19%.

First: B5
Second: B6
The “cAMP agonism, Emax” value of the first is lower: 15.2% for the first, 78.6% for the second.

B8 was tested, and the “cAMP agonism, Emax” value was 6.7%.

B2 and B3 are within 1.5-fold of each other in “cAMP agonism, nM (EC50)” value: 12 nM for the first, 9 nM for the second.

Compared with B5, B6 is 5.8-fold lower in “cAMP agonism, nM (EC50)” value: 15 nM for the first, 2.6 nM for the second.

With B8 the “cAMP agonism, nM (EC50)” value was 2.6 nM.
